Patent US20160280796A1 (Memorial Sloan Kettering, published 2016)

Tests used:
[1] = molecular target: T1, MHC1/WT1 peptide complex (soluble, biotinylated MHC-WT1 loaded on streptavidin biosensor) (human); assay: ForteBio Octet QK, biotinylated MHC-WT1 on streptavidin biosensor, antibody at 10 µg/ml, 1:1 model
T1 construct: also called WT1/HLA-A2 complex

[2] = molecular target: T1, MHC1/WT1 peptide complex (soluble, …); assay: ForteBio Octet QK, biotinylated MHC-WT1 on streptavidin biosensor, antibody at 20 µg/ml, 1:1 model

B1: ESK1 (full-length antibody, parent of the ESK1-OKT3 bi-specific) (antibody, V domains shown)
VH: QMQLVQSGAEVKEPGESLRISCKGSGYSFTNFWISWVRQMPGKGLEWMGRVDPGYSYSTYSPSFQGHVTISADKSTSTAYLQWNSLKASDTAMYYCARVQYSGYYDWFDPWGQGTLVTVSS
VL: not shown
notes: also called ESK1 mAb
Kd [1]: 9.12 nM
koff [1]: 0.00499 s⁻¹
kon [1]: 547000 M⁻¹ s⁻¹

B2: ESK1-OKT3 (bi-specific), full length bi-specific antibody made from ESK1 and anti-CD3 OKT3 by 2-MEA reduction and re-oxidation (bispecific antibody)
heavy 1: not shown
light 1: not shown
heavy 2: not shown
light 2: DIQMTQSPSSLSASVGDRVTITCSASSSVSYMNWYQQTPGKAPKRWIYDTSKLASGVPSRFSGSGSGTDYTFTISSLQPEDIATYYCQQWSSNPFTFGQGTKLQITRTVAAPSVFIFPPSDEQLKSGTASVVCLLNNFYPREAKVQWKVDNALQSGNSQESVTEQDSKDSTYSLSSTLTLSKADYEKHKVYACEVTHQGLSSPVTKSFNRGEC
notes: also called ESK1/OKT3 bi-specific monoclonal antibody
Kd [2]: 92.2 nM
koff [2]: 0.0033 s⁻¹
kon [2]: 35800 M⁻¹ s⁻¹
